The target in one data set is c-Src SH2. Kind of data set: SH2 binding enrichment of the phosphorylated peptide, bacterial display (enrichment ratio); higher = better substrate or ligand; peptides without Tyr show the background.
In the next data set the target is Grb2 SH2 (UniProt P62993). The description is as above.
The target of another data set is SHP2-C SH2. The description is as above.
For a further data set, the system named is c-Abl (mouse). Kind of data set: phosphorylation enrichment, bacterial display (enrichment ratio); higher = better substrate or ligand; peptides without Tyr show the background.
In the next data set the target is Fes (UniProt P07332). The description is as above.
Sequence of Fes (P07332 whole entry, looked up): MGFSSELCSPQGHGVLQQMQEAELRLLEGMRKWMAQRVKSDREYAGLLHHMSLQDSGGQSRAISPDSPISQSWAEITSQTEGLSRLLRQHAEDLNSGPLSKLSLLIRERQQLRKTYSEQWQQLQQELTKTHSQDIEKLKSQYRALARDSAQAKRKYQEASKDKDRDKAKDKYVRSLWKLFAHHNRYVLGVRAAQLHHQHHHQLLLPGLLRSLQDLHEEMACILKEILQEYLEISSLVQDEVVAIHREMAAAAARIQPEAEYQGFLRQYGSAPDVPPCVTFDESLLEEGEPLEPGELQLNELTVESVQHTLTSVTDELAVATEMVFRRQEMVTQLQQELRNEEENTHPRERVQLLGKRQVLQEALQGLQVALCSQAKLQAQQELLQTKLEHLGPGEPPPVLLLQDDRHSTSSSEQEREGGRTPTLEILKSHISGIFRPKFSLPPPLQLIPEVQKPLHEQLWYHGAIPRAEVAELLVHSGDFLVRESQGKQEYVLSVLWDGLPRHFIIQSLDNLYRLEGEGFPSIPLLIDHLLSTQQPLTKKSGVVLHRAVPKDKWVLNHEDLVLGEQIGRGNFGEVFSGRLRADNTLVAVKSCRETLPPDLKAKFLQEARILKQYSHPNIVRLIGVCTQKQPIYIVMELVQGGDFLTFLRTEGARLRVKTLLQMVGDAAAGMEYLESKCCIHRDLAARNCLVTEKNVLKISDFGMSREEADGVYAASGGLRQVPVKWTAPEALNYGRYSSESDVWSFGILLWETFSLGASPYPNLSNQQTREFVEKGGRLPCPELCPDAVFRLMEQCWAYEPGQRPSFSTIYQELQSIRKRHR
Another data set has as its system c-Src. The data set is described as above.
The next data set concerns Fer (mouse). Described as above.
The test system of the next data set is AncSZ. Described as above.
The target in another data set is Fyn (UniProt P06241). Described as above.
Sequence of Fyn (P06241 whole entry, looked up): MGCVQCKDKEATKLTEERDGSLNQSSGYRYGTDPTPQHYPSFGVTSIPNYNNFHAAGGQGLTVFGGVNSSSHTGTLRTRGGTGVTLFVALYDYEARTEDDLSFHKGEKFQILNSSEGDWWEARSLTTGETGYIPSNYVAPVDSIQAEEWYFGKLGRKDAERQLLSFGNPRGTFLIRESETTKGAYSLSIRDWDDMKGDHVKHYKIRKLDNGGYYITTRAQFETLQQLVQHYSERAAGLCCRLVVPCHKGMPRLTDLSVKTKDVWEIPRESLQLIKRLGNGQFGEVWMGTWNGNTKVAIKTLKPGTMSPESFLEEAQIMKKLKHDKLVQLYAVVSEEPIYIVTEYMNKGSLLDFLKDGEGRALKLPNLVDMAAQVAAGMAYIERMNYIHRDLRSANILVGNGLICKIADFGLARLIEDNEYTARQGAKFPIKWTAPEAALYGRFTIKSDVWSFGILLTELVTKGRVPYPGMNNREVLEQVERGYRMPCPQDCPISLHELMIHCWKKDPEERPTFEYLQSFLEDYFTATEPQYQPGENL
In another data set the target is EPHB1 (UniProt P54762). The description is as above.
Sequence of EPHB1 (P54762 whole entry, looked up): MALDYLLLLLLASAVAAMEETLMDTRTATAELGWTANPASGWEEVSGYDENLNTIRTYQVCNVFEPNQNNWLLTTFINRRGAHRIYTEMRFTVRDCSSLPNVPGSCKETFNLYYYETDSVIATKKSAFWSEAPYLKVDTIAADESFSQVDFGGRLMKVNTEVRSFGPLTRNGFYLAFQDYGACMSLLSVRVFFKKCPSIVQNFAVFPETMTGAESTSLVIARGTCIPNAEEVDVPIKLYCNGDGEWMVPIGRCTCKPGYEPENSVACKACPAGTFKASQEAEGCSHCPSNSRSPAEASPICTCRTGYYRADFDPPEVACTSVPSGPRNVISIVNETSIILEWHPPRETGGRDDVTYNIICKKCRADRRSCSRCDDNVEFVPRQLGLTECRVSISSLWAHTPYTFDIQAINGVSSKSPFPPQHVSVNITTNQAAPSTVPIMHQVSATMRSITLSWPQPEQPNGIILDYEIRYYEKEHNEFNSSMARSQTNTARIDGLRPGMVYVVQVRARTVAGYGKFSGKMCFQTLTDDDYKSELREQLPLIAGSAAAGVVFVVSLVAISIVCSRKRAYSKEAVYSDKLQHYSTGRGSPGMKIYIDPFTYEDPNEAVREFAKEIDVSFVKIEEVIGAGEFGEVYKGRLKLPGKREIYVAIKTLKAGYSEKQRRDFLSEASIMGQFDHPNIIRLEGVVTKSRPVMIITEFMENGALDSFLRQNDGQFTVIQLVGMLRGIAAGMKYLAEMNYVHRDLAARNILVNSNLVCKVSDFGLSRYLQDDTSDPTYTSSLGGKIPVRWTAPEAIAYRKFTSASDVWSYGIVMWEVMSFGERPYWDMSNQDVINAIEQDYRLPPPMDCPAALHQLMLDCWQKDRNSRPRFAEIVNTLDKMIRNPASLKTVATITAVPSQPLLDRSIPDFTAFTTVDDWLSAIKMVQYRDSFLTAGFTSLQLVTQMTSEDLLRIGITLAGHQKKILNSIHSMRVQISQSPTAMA
A further data set has as its target EPHB2 (UniProt P29323). The data set is described as above.
For a further data set, the target named is FGFR3 (UniProt P22607). Described as above.
The target of the next data set is Jak2 (UniProt O60674). Described as above.
For the next data set, the target named is FGFR1 (UniProt P11362). Described as above.
Sequence of FGFR1 (P11362 whole entry, looked up): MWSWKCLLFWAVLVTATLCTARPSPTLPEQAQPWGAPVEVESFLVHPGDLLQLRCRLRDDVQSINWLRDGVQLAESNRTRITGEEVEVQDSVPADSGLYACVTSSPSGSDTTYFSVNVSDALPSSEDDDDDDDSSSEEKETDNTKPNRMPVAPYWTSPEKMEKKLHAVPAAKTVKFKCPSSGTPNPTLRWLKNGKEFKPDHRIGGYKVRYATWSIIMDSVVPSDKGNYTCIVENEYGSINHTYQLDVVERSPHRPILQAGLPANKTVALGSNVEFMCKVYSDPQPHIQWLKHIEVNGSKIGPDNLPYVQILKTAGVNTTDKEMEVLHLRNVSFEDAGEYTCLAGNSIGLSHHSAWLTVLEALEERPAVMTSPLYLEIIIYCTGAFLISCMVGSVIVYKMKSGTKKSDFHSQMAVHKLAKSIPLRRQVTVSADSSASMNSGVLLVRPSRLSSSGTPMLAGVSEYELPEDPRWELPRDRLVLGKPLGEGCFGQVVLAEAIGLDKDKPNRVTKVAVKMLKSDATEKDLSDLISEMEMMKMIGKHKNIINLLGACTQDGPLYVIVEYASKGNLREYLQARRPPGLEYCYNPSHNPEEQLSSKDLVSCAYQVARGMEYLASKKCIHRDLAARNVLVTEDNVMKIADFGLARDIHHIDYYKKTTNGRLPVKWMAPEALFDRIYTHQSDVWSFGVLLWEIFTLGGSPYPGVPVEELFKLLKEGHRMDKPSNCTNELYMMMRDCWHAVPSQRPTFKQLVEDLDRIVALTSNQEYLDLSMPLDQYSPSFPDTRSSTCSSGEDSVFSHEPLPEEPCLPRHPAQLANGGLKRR
In a further data set the target is MERTK (UniProt Q12866). The description is as above.
Another data set deals with Hck (UniProt P08631). Described as above.
Sequence of Hck (P08631 whole entry, looked up, the tested form may be a part): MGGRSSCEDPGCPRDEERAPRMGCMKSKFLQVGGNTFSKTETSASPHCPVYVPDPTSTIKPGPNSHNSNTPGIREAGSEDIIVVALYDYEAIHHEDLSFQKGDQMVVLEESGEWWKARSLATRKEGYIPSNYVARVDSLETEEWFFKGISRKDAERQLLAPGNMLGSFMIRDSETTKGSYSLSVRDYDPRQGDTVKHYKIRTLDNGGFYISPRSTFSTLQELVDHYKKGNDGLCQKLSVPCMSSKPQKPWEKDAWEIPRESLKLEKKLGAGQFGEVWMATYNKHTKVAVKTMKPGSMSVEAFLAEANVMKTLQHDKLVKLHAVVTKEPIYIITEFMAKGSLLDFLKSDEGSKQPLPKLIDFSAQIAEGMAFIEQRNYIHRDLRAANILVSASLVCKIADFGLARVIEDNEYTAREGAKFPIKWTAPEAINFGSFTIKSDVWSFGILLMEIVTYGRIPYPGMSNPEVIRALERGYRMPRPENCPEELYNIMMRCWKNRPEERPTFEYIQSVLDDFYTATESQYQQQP
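For SH2 binding enrichment of the phosphorylated peptide, bacterial display in this document: peptide library displayed on the E. coli surface as eCPX fusions, selected cells deep-sequenced, score is each peptide's frequency after selection divided by its frequency in the input.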
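For phosphorylation enrichment, bacterial display in this document: 11-residue human phosphosite peptides and single-mutation variants displayed on the E. coli surface, counted by deep sequencing, each peptide's frequency after selection divided by its frequency in the unselected input library; frequency after pTyr selection over input frequency; kinase dosed for 20-30% of maximal phosphorylation in three min.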

Sequence of Grb2 SH2 (P62993 whole entry, looked up): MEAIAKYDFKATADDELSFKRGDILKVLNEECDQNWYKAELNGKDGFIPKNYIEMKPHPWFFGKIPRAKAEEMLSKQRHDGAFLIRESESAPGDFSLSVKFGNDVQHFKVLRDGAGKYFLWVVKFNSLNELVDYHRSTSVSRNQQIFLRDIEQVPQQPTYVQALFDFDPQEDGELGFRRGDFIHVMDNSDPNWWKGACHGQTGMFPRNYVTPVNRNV
Sequence of EPHB2 (P29323 whole entry, looked up): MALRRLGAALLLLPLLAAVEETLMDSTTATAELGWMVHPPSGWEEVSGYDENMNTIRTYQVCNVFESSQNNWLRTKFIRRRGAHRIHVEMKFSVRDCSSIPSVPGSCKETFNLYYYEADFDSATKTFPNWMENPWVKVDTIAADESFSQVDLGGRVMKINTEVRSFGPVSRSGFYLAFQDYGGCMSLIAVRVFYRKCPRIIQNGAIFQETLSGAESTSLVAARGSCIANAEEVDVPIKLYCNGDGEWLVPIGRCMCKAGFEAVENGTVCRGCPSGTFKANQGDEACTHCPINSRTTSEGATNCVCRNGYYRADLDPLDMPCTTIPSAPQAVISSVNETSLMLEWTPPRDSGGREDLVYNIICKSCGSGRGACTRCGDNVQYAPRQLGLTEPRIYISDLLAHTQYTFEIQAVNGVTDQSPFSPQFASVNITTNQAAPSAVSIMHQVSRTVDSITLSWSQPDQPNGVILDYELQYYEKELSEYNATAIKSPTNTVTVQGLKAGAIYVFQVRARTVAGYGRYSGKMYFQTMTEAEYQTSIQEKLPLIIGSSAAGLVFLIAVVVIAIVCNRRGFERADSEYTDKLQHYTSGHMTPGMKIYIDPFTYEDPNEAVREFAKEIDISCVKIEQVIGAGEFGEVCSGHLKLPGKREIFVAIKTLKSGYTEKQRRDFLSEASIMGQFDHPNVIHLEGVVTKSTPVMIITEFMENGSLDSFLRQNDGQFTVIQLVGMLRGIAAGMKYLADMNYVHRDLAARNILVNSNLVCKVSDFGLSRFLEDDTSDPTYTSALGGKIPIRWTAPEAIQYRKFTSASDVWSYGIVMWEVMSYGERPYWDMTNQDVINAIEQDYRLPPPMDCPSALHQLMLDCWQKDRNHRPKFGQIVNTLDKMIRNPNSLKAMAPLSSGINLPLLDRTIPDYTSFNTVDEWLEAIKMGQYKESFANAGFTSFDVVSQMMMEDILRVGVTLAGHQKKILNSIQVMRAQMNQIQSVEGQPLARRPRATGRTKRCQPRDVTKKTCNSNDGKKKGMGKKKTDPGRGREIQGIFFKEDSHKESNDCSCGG

As to IFHENYNAGTY [CFI_Y421], the SH2 binding enrichment with c-Src SH2 is 0.625; in the data set with Grb2 SH2 it was 0.788; in the data set with SHP2-C SH2, 0.676. In addition, the phosphorylation enrichment in the data set with c-Abl (mouse) was 0.603; in the data set with Fes, 1.02; in the data set with c-Src it was 0.655; with Fer (mouse), 1.01; in the data set on AncSZ, 0.804; with Fyn it was 0.664. Further, the phosphorylation enrichment is 0.656 in the data set with EPHB1; 0.585 in the data set with EPHB2; 0.588 with FGFR3; 0.783 in the data set with Jak2; 0.557 in the data set with FGFR1; 0.533 with MERTK. Moreover, the phosphorylation enrichment in the data set with Hck was determined as 0.717.
In the case of IFLADCRIMEG [ALOX12B_Y318_Y318C_YF], the SH2 binding enrichment in the data set with c-Src SH2 is 0.461; in the data set with Grb2 SH2 it was 0.886; with SHP2-C SH2, 0.62. The phosphorylation enrichment with c-Abl (mouse) stood at 0.894; with Fes, 1.48; in the data set with c-Src, 0.525; with Fer (mouse), 0.594; with AncSZ it was 1.33; in the data set with Fyn it was 0.579. For the same sequence, the phosphorylation enrichment with EPHB1 came out at 0.803; with EPHB2 it was 0.664; with FGFR3 it was 1.02; with Jak2 it was 1.2; with FGFR1, 0.654; with MERTK, 0.5. Moreover, the phosphorylation enrichment with Hck amounted to 0.662.
For IFLADYRIMEG [ALOX12B_Y318_YF], the SH2 binding enrichment with c-Src SH2 was found to be 0.987; with Grb2 SH2, 1.16; with SHP2-C SH2 it was 1.12. Further, the phosphorylation enrichment was found to be 0.641 with c-Abl (mouse); 0.984 in the data set with Fes; 0.528 in the data set on c-Src; 0.453 in the data set with Fer (mouse); 0.689 in the data set on AncSZ; 0.408 in the data set with Fyn. The phosphorylation enrichment with EPHB1 worked out at 0.454; with EPHB2 it was 0.523; in the data set with FGFR3, 0.787; with Jak2, 0.782; with FGFR1, 0.814; with MERTK, 0.478. For the same sequence, in the data set with Hck, the phosphorylation enrichment is 0.421.
Take IFRAAYFGVFD [SLC25A4_Y191_YF]: the SH2 binding enrichment with c-Src SH2 is 0.546; in the data set with Grb2 SH2, 0.832; with SHP2-C SH2, 0.588. The phosphorylation enrichment in the data set with c-Abl (mouse) stood at 0.761; with Fes it was 1.25; in the data set with c-Src it was 0.438; with Fer (mouse) it was 0.523; in the data set on AncSZ, 0.985; with Fyn it was 0.497. In addition, the phosphorylation enrichment was 0.751 with EPHB1; 0.594 with EPHB2; 0.717 in the data set with FGFR3; 0.891 with Jak2; 0.499 with FGFR1; 0.447 with MERTK. In the data set with Hck, the phosphorylation enrichment stood at 0.457.
Turning to IGERTYGQVYK [CDK13_Y716_G714R], the SH2 binding enrichment with c-Src SH2 was found to be 0.565; with Grb2 SH2, 0.866; in the data set with SHP2-C SH2, 0.675. In addition, the phosphorylation enrichment was 0.536 in the data set with c-Abl (mouse); 0.555 in the data set with Fes; 6.07 in the data set on c-Src; 0.392 with Fer (mouse); 0.507 in the data set on AncSZ; 9.16 with Fyn. The phosphorylation enrichment was 0.409 in the data set with EPHB1; 0.416 with EPHB2; 0.41 in the data set with FGFR3; 0.516 in the data set with Jak2; 0.381 with FGFR1; 0.408 with MERTK. Besides, in the data set with Hck, the phosphorylation enrichment worked out at 3.64.
As to IGKAGYTDKVV [ENO1_Y236], the SH2 binding enrichment with c-Src SH2 turned out to be 0.371; with Grb2 SH2, 0.757; in the data set with SHP2-C SH2, 0.606. The phosphorylation enrichment in the data set on c-Abl (mouse) is 0.481; with Fes it was 0.642; in the data set with c-Src, 0.335; in the data set on Fer (mouse), 0.365; with AncSZ it was 0.531; in the data set with Fyn it was 0.359. Moreover, the phosphorylation enrichment with EPHB1 stood at 0.398; with EPHB2, 0.395; with FGFR3 it was 0.508; with Jak2 it was 0.632; with FGFR1, 0.456; in the data set with MERTK it was 0.305. Further, the phosphorylation enrichment with Hck was 0.388.
On to IGNGYYFRVFS [MYBPC3_Y1136], for which the SH2 binding enrichment with c-Src SH2 was determined as 0.561; with Grb2 SH2, 0.977; in the data set with SHP2-C SH2 it was 0.861. For the same sequence, the phosphorylation enrichment in the data set on c-Abl (mouse) was 0.967; with Fes it was 1.43; in the data set with c-Src it was 0.359; with Fer (mouse) it was 0.556; in the data set on AncSZ it was 1.34; with Fyn, 0.496. Besides, the phosphorylation enrichment in the data set with EPHB1 was determined as 0.729; with EPHB2, 0.667; in the data set with FGFR3, 0.947; with Jak2, 1.44; with FGFR1, 0.514; in the data set with MERTK, 0.449. The phosphorylation enrichment in the data set with Hck was 0.557.
Regarding IHSGIYFKPES [L2HGDH_Y102_YF], the SH2 binding enrichment with c-Src SH2 worked out at 0.777; in the data set with Grb2 SH2 it was 0.747; with SHP2-C SH2, 0.829. The phosphorylation enrichment in the data set on c-Abl (mouse) is 8.52; with Fes it was 0.887; in the data set on c-Src, 1.96; in the data set on Fer (mouse), 0.497; in the data set with AncSZ, 1.39; with Fyn, 1.72. Further, the phosphorylation enrichment was 0.996 with EPHB1; 0.674 with EPHB2; 0.744 with FGFR3; 2.59 in the data set with Jak2; 0.702 in the data set with FGFR1; 6.44 with MERTK. Also, the phosphorylation enrichment with Hck came to 2.14.
IHSGIYYKPES [L2HGDH_Y102]: the SH2 binding enrichment turned out to be 0.67 with c-Src SH2, 0.762 in the data set with Grb2 SH2 and 0.539 in the data set with SHP2-C SH2. Also, the phosphorylation enrichment with c-Abl (mouse) turned out to be 18.7; with Fes it was 0.752; with c-Src, 4.54; in the data set with Fer (mouse), 0.943; with AncSZ, 1.45; in the data set with Fyn, 6. Besides, the phosphorylation enrichment in the data set with EPHB1 came out at 3.93; with EPHB2, 2.02; with FGFR3, 1.38; in the data set with Jak2, 3.48; with FGFR1 it was 1.53; in the data set with MERTK, 11.7. Also, the phosphorylation enrichment with Hck turned out to be 5.38.

The values above are taken from the supplement of paper PMC10065799, “High-throughput profiling of sequence recognition by tyrosine kinases and SH2 domains using bacterial peptide display” (eLife, 2023).
